The supplement of paper PMC10567573

B1: ZC3H15 (parent)
chain: ENLFTGEDLDELEEELNTLDLEE
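Note: lentivirally expressed fusions sorted by FACS into six bins by GFP to DsRed ratio, PSI derived from sequencing read proportions per bin multiplied by bin number.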

Variants of: B1
Assay: protein stability index of a GFP-peptide fusion (GPS, HEK-293T) (PSI 1-6); higher = more stable
Settings: c terminus: native
Variant ENLFTGEDLDELCEELNTLDLEE [E13C] has a protein stability index of 5.19. Work on ENLFTGEDLDELWEELNTLDLEE [E13W] yielded a protein stability index of 3.48. ENLFTGEDLDELPEELNTLDLEE [E13P] showed a protein stability index of 3.56. Work on ENLFTGEDLDELSEELNTLDLEE [E13S] yielded a protein stability index of 5.36. Variant ENLFTGEDLDELVEELNTLDLEE [E13V] has a protein stability index of 4.83. ENLFTGEDLDELFEELNTLDLEE [E13F] gave a protein stability index of 3.81. Work on ENLFTGEDLDELNEELNTLDLEE [E13N] yielded a protein stability index of 5.1. Variant ENLFTGEDLDELLEELNTLDLEE [E13L] has a protein stability index of 4.44. For ENLFTGEDLDELAEELNTLDLEE [E13A], the protein stability index was 5.59. ENLFTGEDLDELDEELNTLDLEE [E13D] gave a protein stability index of 4.46. Variant ENLFTGEDLDELGEELNTLDLEE [E13G] has a protein stability index of 3.77. ENLFTGEDLDELKEELNTLDLEE [E13K] gave a protein stability index of 4. In the case of ENLFTGEDLDELHEELNTLDLEE [E13H], the protein stability index is reported as 3.82. In the case of ENLFTGEDLDELTEELNTLDLEE [E13T], the protein stability index is reported as 4.6. In the case of ENLFTGEDLDELYEELNTLDLEE [E13Y], the protein stability index is reported as 4.11. Variant ENLFTGEDLDELIEELNTLDLEE [E13I] has a protein stability index of 4.51. ENLFTGEDLFELEEELNTLDLEE [D10F] gave a protein stability index of 4.12. For ENLFTGEDLEELEEELNTLDLEE [D10E], the protein stability index was 5.05. ENLFTGEDLLELEEELNTLDLEE [D10L] showed a protein stability index of 4.28. ENLFTGEDLPELEEELNTLDLEE [D10P] gave a protein stability index of 5. With ENLFTGEDLWELEEELNTLDLEE [D10W] the protein stability index was 4.02. For ENLFTGEDLYELEEELNTLDLEE [D10Y], the protein stability index was 3.33. ENLFTGEDLHELEEELNTLDLEE [D10H] showed a protein stability index of 4.89. ENLFTGEDLAELEEELNTLDLEE [D10A] showed a protein stability index of 5.27. Work on ENLFTGEDLRELEEELNTLDLEE [D10R] yielded a protein stability index of 5.07. ENLFTGEDLQELEEELNTLDLEE [D10Q] showed a protein stability index of 4.89. Variant ENLFTGEDLKELEEELNTLDLEE [D10K] has a protein stability index of 4.35. ENLFTGEDLIELEEELNTLDLEE [D10I] showed a protein stability index of 4.73. In the case of ENLFTGEDLNELEEELNTLDLEE [D10N], the protein stability index is reported as 5.33. In the case of ENLFTGEDLMELEEELNTLDLEE [D10M], the protein stability index is reported as 3.89. In the case of ENLFTGEDLGELEEELNTLDLEE [D10G], the protein stability index is reported as 4.73. Variant ENLFTGEDLVELEEELNTLDLEE [D10V] has a protein stability index of 5.1. In the case of ENLFTGEDLDELEKELNTLDLEE [E14K], the protein stability index is reported as 5.14. ENLFTGEDLDELEAELNTLDLEE [E14A] showed a protein stability index of 5.01. Work on ENLFTGEDLDELEQELNTLDLEE [E14Q] yielded a protein stability index of 4.56. ENLFTGEDLDELEYELNTLDLEE [E14Y] gave a protein stability index of 4.33. In the case of ENLFTGEDLDELENELNTLDLEE [E14N], the protein stability index is reported as 4.37. Variant ENLFTGEDLDELEVELNTLDLEE [E14V] has a protein stability index of 3.65. Work on ENLFTGEDLDELETELNTLDLEE [E14T] yielded a protein stability index of 4.12. Work on ENLFTGEDLDELEDELNTLDLEE [E14D] yielded a protein stability index of 4.74. Work on ENLFTGEDLDELEWELNTLDLEE [E14W] yielded a protein stability index of 3.7. In the case of ENLFTGEDLDELECELNTLDLEE [E14C], the protein stability index is reported as 3.99. In the case of ENLFTGEDLDELEFELNTLDLEE [E14F], the protein stability index is reported as 2.95. Variant ENLFTGEDLDELESELNTLDLEE [E14S] has a protein stability index of 4.85. Variant ENLFTGEDLDELEGELNTLDLEE [E14G] has a protein stability index of 3.47. In the case of ENLFTGEDLDELEIELNTLDLEE [E14I], the protein stability index is reported as 3.3. ENLFTGEDLDELEHELNTLDLEE [E14H] gave a protein stability index of 5.05. ENLFTGEDLDELEMELNTLDLEE [E14M] gave a protein stability index of 3.55. With ENLFTGEDLDELEPELNTLDLEE [E14P] the protein stability index was 3.42. Variant ENLFTGEDLDDLEEELNTLDLEE [E11D] has a protein stability index of 4.58. ENLFTGEDLDRLEEELNTLDLEE [E11R] showed a protein stability index of 4.98. Work on ENLFTGEDLDILEEELNTLDLEE [E11I] yielded a protein stability index of 4.71. Variant ENLFTGEDLDVLEEELNTLDLEE [E11V] has a protein stability index of 4.1. ENLFTGEDLDLLEEELNTLDLEE [E11L] gave a protein stability index of 4.3. Work on ENLFTGEDLDALEEELNTLDLEE [E11A] yielded a protein stability index of 3.93. ENLFTGEDLDTLEEELNTLDLEE [E11T] gave a protein stability index of 4.9. In the case of ENLFTGEDLDNLEEELNTLDLEE [E11N], the protein stability index is reported as 4.58. ENLFTGEDLDKLEEELNTLDLEE [E11K] showed a protein stability index of 4.83. With ENLFTGEDLDFLEEELNTLDLEE [E11F] the protein stability index was 3.64. ENLFTGEDLDPLEEELNTLDLEE [E11P] showed a protein stability index of 4.06. Variant ENLFTGEDLDHLEEELNTLDLEE [E11H] has a protein stability index of 4.58. ENLFTGEDLDQLEEELNTLDLEE [E11Q] gave a protein stability index of 4.89. In the case of ENLFTGEDLDWLEEELNTLDLEE [E11W], the protein stability index is reported as 4.67. For ENLFTGEDLDCLEEELNTLDLEE [E11C], the protein stability index was 4.52. ENLFTGEDLDSLEEELNTLDLEE [E11S] showed a protein stability index of 4.93. Work on ENLFTGEDLDMLEEELNTLDLEE [E11M] yielded a protein stability index of 4.25. ENLFTGEDLDGLEEELNTLDLEE [E11G] showed a protein stability index of 5.13. ENLFTMEDLDELEEELNTLDLEE [G6M] showed a protein stability index of 4.68. For ENLFTSEDLDELEEELNTLDLEE [G6S], the protein stability index was 4.88. In the case of ENLFTVEDLDELEEELNTLDLEE [G6V], the protein stability index is reported as 4.28. ENLFTKEDLDELEEELNTLDLEE [G6K] gave a protein stability index of 4.79. With ENLFTQEDLDELEEELNTLDLEE [G6Q] the protein stability index was 4.41. With ENLFTREDLDELEEELNTLDLEE [G6R] the protein stability index was 4.51. ENLFTNEDLDELEEELNTLDLEE [G6N] gave a protein stability index of 4.83. For ENLFTLEDLDELEEELNTLDLEE [G6L], the protein stability index was 4.85. ENLFTTEDLDELEEELNTLDLEE [G6T] showed a protein stability index of 4.81. For ENLFTFEDLDELEEELNTLDLEE [G6F], the protein stability index was 4.3. ENLFTYEDLDELEEELNTLDLEE [G6Y] showed a protein stability index of 4.58. Work on ENLFTHEDLDELEEELNTLDLEE [G6H] yielded a protein stability index of 4.37. Work on ENLFTAEDLDELEEELNTLDLEE [G6A] yielded a protein stability index of 4.82. For ENLFTDEDLDELEEELNTLDLEE [G6D], the protein stability index was 4.93. Variant ENLFTIEDLDELEEELNTLDLEE [G6I] has a protein stability index of 4.2. With ENLFTGELLDELEEELNTLDLEE [D8L] the protein stability index was 4.72. With ENLFTGECLDELEEELNTLDLEE [D8C] the protein stability index was 4.99. Work on ENLFTGERLDELEEELNTLDLEE [D8R] yielded a protein stability index of 5.05. In the case of ENLFTGEHLDELEEELNTLDLEE [D8H], the protein stability index is reported as 4.66. For ENLFTGEILDELEEELNTLDLEE [D8I], the protein stability index was 4.13. Work on ENLFTGETLDELEEELNTLDLEE [D8T] yielded a protein stability index of 4.25. ENLFTGESLDELEEELNTLDLEE [D8S] showed a protein stability index of 5.14. For ENLFTGEELDELEEELNTLDLEE [D8E], the protein stability index was 4.58. Variant ENLFTGEPLDELEEELNTLDLEE [D8P] has a protein stability index of 4.24. ENLFTGEKLDELEEELNTLDLEE [D8K] showed a protein stability index of 4.39. For ENLFTGEVLDELEEELNTLDLEE [D8V], the protein stability index was 4.83. Variant ENLFTGEWLDELEEELNTLDLEE [D8W] has a protein stability index of 4.09. Work on ENLFTGENLDELEEELNTLDLEE [D8N] yielded a protein stability index of 3.93. Work on ENLFTGEGLDELEEELNTLDLEE [D8G] yielded a protein stability index of 5.03. ENLFTGEQLDELEEELNTLDLEE [D8Q] showed a protein stability index of 4.58.
